Source: US20240294635A1

Key:
[1] = target: CD47 on the red cell surface (Homo sapiens (Human)) (UniProt Q08722); assay: flow cytometry on fixed red cells, antibody 1 µg/mL
[2] = target: CD47 on the red cell surface (Homo sapiens (Human)) (UniProt Q08722); assay: flow cytometry on fixed red cells, antibody 10 µg/mL

MFI [1]: 449 MFI
MFI [2]: 484 MFI
Substance: IgG4 (antibody)
